The record followed here is paper PMC11810782.

The experiment deals with GFP–TGN46 (UniProt O43493). The experiment in a line: single-molecule GFP step-photobleaching by TIRF (NativeNanoBleach); ChloroSMA60-extracted total membrane of cells expressing GFP–TGN46 passed over glass slides with streptavidin and biotinylated GFP nanobody; discs captured and GFP bleaching steps counted; 1,000–1,500 particles for each biological replicate, corrected for GFP maturation efficiency.

GFP–TGN46, O43493 22-437 (natural protein; other documents disagree on this pair), sequence (O43493 22-437): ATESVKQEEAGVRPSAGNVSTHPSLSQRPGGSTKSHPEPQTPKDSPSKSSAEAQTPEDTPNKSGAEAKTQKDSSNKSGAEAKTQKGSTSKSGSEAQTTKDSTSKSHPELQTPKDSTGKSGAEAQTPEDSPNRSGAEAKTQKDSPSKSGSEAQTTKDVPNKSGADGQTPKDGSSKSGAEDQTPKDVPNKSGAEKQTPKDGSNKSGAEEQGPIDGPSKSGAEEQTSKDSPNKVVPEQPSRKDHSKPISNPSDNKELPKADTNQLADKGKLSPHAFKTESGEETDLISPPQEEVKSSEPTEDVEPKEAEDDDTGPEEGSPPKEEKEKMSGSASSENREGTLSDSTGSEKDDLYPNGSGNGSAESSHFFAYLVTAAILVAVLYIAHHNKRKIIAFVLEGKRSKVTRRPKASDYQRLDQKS

“GFP–TGN46, O43493 22-437 (natural protein; other documents disagree on this pair)” showed a stoichiometry N of 1 to 4.

One may read the stoichiometry N as a count of units in the complex or per binding partner.
